Results as given in patent US10245299B2, “Autoassembling peptides for the treatment of pulmonary bulla” (3-D MATRIX, LTD., priority 2014, dated 2019).

Key:
Assay type in all cases: physicochemical
[1] = Gelation of peptide solutions after saline buffer treatment, time sweep; conditions: saline buffer (0.15 M of NaCl); IEIK13 1.5%, KLD12 1.5%, PuraMatrix® 2.5% solution
Protocol: The effect of salt ionic strength level surrounding peptide solution on the properties of peptide solutions was evaluated to identify the possibility of peptide gelation when the peptide solution is placed into the environment where salt ionic strength level is high. […] Without pH effect, the effect of saline treatment on gelation of peptide solutions were evaluated. […] This is because IEIK13 is much more sensitive to salt ionic strength levels. Fast gelation of IEIK13 at the salt ionic strength level similar to body fluid isotonic salt level may generally improve its function and gelation speed for various clinical applications. The results are shown in FIG. 19 for IEIK13, KLD12 and PuraMatrix® solutions. Time sweep tests were performed at 1 rad/sec and at 1 Pa with 20 mm plates and 500 μm gap distance. […]

[2] = pH and appearance of 2.5% peptide solutions after adding 0.1 N NaOH
Protocol: To adjust the pH level of the peptide solutions by way of example, 0.1 N NaOH was added to 2 mL of 2.5% peptide solutions and their pH and appearance were measured.

[3] = Rheological properties of pH adjusted peptide solutions and hydrogels; conditions: KLD12 1%, IEIK13 1%, PuraMatrix® 1% and 2.5%
Protocol: Based on the visual observation of the effect of pH level on the properties of the peptide solutions, the effect on the rheological properties of the peptide solutions after adjusting their pH level to 3.4 (PuraMatrix® and KLD12) or 3.7 (IEIK13) was evaluated. If the pH levels of peptide solutions are higher than 3.5 (PuraMatrix® and KLD12) or 3.7 (IEIK13), the peptide solution began phase separation becoming cloudy. The rheological properties of PuraMatrix®, KLD12 and IEIK13 solutions were higher at pH 3.4. The results are shown in FIG. 2 for KLD12 1%, FIG. 3 for IEIK13 1%, and FIGS. 4-5 for PuraMatrix® 1% and 2.5%, respectively. Stress sweep tests were performed at 10 rad/s. Frequency sweep tests were performed at 1 Pa.
Based on the results of the effect on the rheological properties of the peptide solutions after adjusting their pH level to 3.4 (PuraMatrix® and KLD12) or 3.7 (IEIK13), the effect on the rheological properties of the peptide solutions at various pH levels was evaluated. […] The rheological properties of peptides were evaluated at various concentrations using a rheometer (DHR-1, TA Instruments) with 20 mm plates. The results are shown in FIG. 6A for PuraMatrix® 2.5% solution and FIG. 6B for IEIK13 1.5% solution, respectively. Frequency sweep tests were performed from 1 rad/sec to 10 rad/sec at 1 Pa and the storage modulus at 1 rad/sec was selected for data.
Based on the results of the effect on the rheological properties of the peptide solutions after adjusting their pH level, the effect on the rheological properties of the peptide hydrogels at various pH after DMEM treatment was evaluated and compared to the effect on the rheological properties of the peptide solutions at various pH before DMEM treatment. […] The results are shown in FIGS. 7A-7B for PuraMatrix® and FIGS. 8A-8B for IEIK (SEQ ID NO: 5), respectively. Frequency sweep tests were performed from 1 rad/sec to 10 rad/sec at 1 Pa and the storage modulus at 1 rad/sec was selected for data.

[4] = Appearance of 1.5% peptide solutions with various salts at room temperature; conditions: for Appearance: room temperature
Protocol: The effect of salt ionic strength level on the properties of peptide solutions was evaluated to identify optimized salt ionic strength levels for the peptides as described herein. Increasing the salt ionic strength level of PuraMatrix® and other peptides may generally improve its function and mechanical strength for various clinical applications. To adjust the salt ionic strength of the peptide solutions by way of example, various salt buffer solutions including NaCl, KCl, MgCl2, CaCl2 and DPBS (10×) were added to 2 mL of 1.5% peptide solutions.

Arg-Ala-Asp-Ala-Arg-Ala-Asp-Ala-Arg-Ala-Asp-Ala-Arg-Ala-Asp-Ala [PuraMatrix®]
gelation after saline buffer treatment [1]: no or negligible gelation
Appearance ([2]; 0.1N NaOH 0 μL/mL, conc. 2.5%, pH 2.2): Clear, thick gel
Appearance ([2]; 0.1N NaOH 50 μL/mL, conc. 2.38%, pH 2.3): Clear, thick gel
Appearance ([2]; 0.1N NaOH 100 μL/mL, conc. 2.27%, pH 2.4): Clear, thick gel
Appearance ([2]; 0.1N NaOH 150 μL/mL, conc. 2.17%, pH 2.7): Clear, thick,
Appearance ([2]; 0.1N NaOH 200 μL/mL, conc. 2.08%, pH 2.9): Clear, thick,
Appearance ([2]; 0.1N NaOH 250 μL/mL, conc. 2.0%, pH 3.2): Clear, thick,
Appearance ([2]; 0.1N NaOH 275 μL/mL, conc. 1.96%, pH 3.4): Clear, thick,
Appearance ([2]; 0.1N NaOH 300 μL/mL, conc. 1.92%, pH 3.6): Slightly cloudy,
Appearance ([2]; 0.1N NaOH 350 μL/mL, conc. 1.85%, pH 4.5): Cloudy, phase-
Peptide solution pH ([2]; 0.1N NaOH added in 2.5% solution 0 μL/mL, conc. 2.5%): 2.2
Peptide solution pH ([2]; 0.1N NaOH added in 2.5% solution 50 μL/mL, conc. 2.38%): 2.3
Peptide solution pH ([2]; 0.1N NaOH added in 2.5% solution 100 μL/mL, conc. 2.27%): 2.4
Peptide solution pH ([2]; 0.1N NaOH added in 2.5% solution 150 μL/mL, conc. 2.17%): 2.7
Peptide solution pH ([2]; 0.1N NaOH added in 2.5% solution 200 μL/mL, conc. 2.08%): 2.9
Peptide solution pH ([2]; 0.1N NaOH added in 2.5% solution 250 μL/mL, conc. 2.0%): 3.2
Peptide solution pH ([2]; 0.1N NaOH added in 2.5% solution 275 μL/mL, conc. 1.96%): 3.4
Peptide solution pH ([2]; 0.1N NaOH added in 2.5% solution 300 μL/mL, conc. 1.92%): 3.6
Peptide solution pH ([2]; 0.1N NaOH added in 2.5% solution 350 μL/mL, conc. 1.85%): 4.5
Appearance ([2]; pH 7.0): Cloudy, phase-
rheological properties of solutions at pH 3.4 [3]: higher
Appearance ([4]; PuraMatrix ® 0.5%, DPBS (pH 3.2) 1.0 M, ionic strength 1.0 M): Cloudy, phase-separated
Appearance ([4]; PuraMatrix ® 0.55%, DPBS (pH 3.2) 0.95 M, ionic strength 0.95 M): Slightly cloudy, brittle gel
Appearance ([4]; PuraMatrix ® 0.6%, DPBS (pH 3.2) 0.9 M, ionic strength 0.9 M): Clear, thick, stiffer gel
Appearance ([4]; PuraMatrix ® 0.75%, DPBS (pH 3.2) 0.75 M, ionic strength 0.75 M): Clear, thick, stiffer gel
Appearance ([4]; PuraMatrix ® 0.9%, DPBS (pH 3.2) 0.6 M, ionic strength 0.6 M): Clear, thick, stiffer gel
Appearance ([4]; PuraMatrix ® 0.93%, KCl 1.15 M, ionic strength 1.15 M): Cloudy, phase-separated
Appearance ([4]; PuraMatrix ® 0.95%, KCl 1.1 M, ionic strength 1.1 M): Slightly cloudy, brittle gel
Appearance ([4]; PuraMatrix ® 0.98%, KCl 1.05 M, ionic strength 1.05 M): Slightly cloudy, thick, stiffer gel
Appearance ([4]; PuraMatrix ® 1.0%, KCl 1.0 M, ionic strength 1.0 M): Clear, thick, stiffer gel
Appearance ([4]; PuraMatrix ® 1.0%, NaCl 1.0 M, ionic strength 1.0 M): Cloudy, phase-separated
Appearance ([4]; PuraMatrix ® 1.03%, KCl 0.95 M, ionic strength 0.95 M): Clear, thick, stiffer gel
Appearance ([4]; PuraMatrix ® 1.03%, NaCl 0.95 M, ionic strength 0.95 M): Cloudy, phase-separated
Appearance ([4]; PuraMatrix ® 1.05%, DPBS (pH 3.2) 0.45 M, ionic strength 0.45 M): Clear, thick, stiffer gel
Appearance ([4]; PuraMatrix ® 1.05%, KCl 0.9 M, ionic strength 0.9 M): Clear, thick, stiffer gel
Appearance ([4]; PuraMatrix ® 1.05%, NaCl 0.9 M, ionic strength 0.9 M): Slightly cloudy, brittle gel
Appearance ([4]; PuraMatrix ® 1.08%, NaCl 0.85 M, ionic strength 0.85 M): Clear, thick, stiffer gel
Appearance ([4]; PuraMatrix ® 1.10%, NaCl 0.8 M, ionic strength 0.8 M): Clear, thick, stiffer gel
Appearance ([4]; PuraMatrix ® 1.13%, KCl 0.75 M, ionic strength 0.75 M): Clear, thick, stiffer gel
Appearance ([4]; PuraMatrix ® 1.13%, NaCl 0.75 M, ionic strength 0.75 M): Clear, thick, stiffer gel
Appearance ([4]; PuraMatrix ® 1.2%, DPBS (pH 3.2) 0.3 M, ionic strength 0.3 M): Clear, thick, stiffer gel
Appearance ([4]; PuraMatrix ® 1.2%, KCl 0.6 M, ionic strength 0.6 M): Clear, thick, stiffer gel
Appearance ([4]; PuraMatrix ® 1.2%, NaCl 0.6 M, ionic strength 0.6 M): Clear, thick, stiffer gel
Appearance ([4]; PuraMatrix ® 1.27%, KCl 0.45 M, ionic strength 0.45 M): Clear, thick, stiffer gel
Appearance ([4]; PuraMatrix ® 1.27%, NaCl 0.45 M, ionic strength 0.45 M): Clear, thick, stiffer gel
Appearance ([4]; PuraMatrix ® 1.28%, CaCl2 0.433 M, ionic strength 1.3 M): Cloudy, phase-separated
Appearance ([4]; PuraMatrix ® 1.28%, MgCl2 0.433 M, ionic strength 1.3 M): Cloudy, phase-separated
Appearance ([4]; PuraMatrix ® 1.29%, CaCl2 0.417 M, ionic strength 1.25 M): Slightly cloudy, brittle gel
Appearance ([4]; PuraMatrix ® 1.29%, MgCl2 0.417 M, ionic strength 1.25 M): Slightly cloudy, brittle gel
Appearance ([4]; PuraMatrix ® 1.3%, CaCl2 0.4 M, ionic strength 1.2 M): Slightly cloudy, thick, stiffer gel
Appearance ([4]; PuraMatrix ® 1.3%, MgCl2 0.4 M, ionic strength 1.2 M): Slightly cloudy, thick, stiffer gel
Appearance ([4]; PuraMatrix ® 1.31%, CaCl2 0.383 M, ionic strength 1.15 M): Clear, thick, stiffer gel
Appearance ([4]; PuraMatrix ® 1.31%, MgCl2 0.383 M, ionic strength 1.15 M): Clear, thick, stiffer gel
Appearance ([4]; PuraMatrix ® 1.32%, CaCl2 0.35 M, ionic strength 1.05 M): Clear, thick, stiffer gel
Appearance ([4]; PuraMatrix ® 1.32%, MgCl2 0.35 M, ionic strength 1.05 M): Clear, thick, stiffer gel
Appearance ([4]; PuraMatrix ® 1.35%, CaCl2 0.3 M, ionic strength 0.9 M): Clear, thick, stiffer gel
Appearance ([4]; PuraMatrix ® 1.35%, DPBS (pH 3.2) 0.15 M, ionic strength 0.15 M): Clear, thick, stiffer gel
Appearance ([4]; PuraMatrix ® 1.35%, KCl 0.3 M, ionic strength 0.3 M): Clear, thick, stiffer gel
Appearance ([4]; PuraMatrix ® 1.35%, MgCl2 0.3 M, ionic strength 0.9 M): Clear, thick, stiffer gel
Appearance ([4]; PuraMatrix ® 1.35%, NaCl 0.3 M, ionic strength 0.3 M): Clear, thick, stiffer gel
Appearance ([4]; PuraMatrix ® 1.38%, CaCl2 0.25 M, ionic strength 0.75 M): Clear, thick, stiffer gel
Appearance ([4]; PuraMatrix ® 1.38%, MgCl2 0.25 M, ionic strength 0.75 M): Clear, thick, stiffer gel
Appearance ([4]; PuraMatrix ® 1.4%, CaCl2 0.2 M, ionic strength 0.6 M): Clear, thick, stiffer gel
Appearance ([4]; PuraMatrix ® 1.4%, MgCl2 0.2 M, ionic strength 0.6 M): Clear, thick, stiffer gel
Appearance ([4]; PuraMatrix ® 1.43%, CaCl2 0.15 M, ionic strength 0.45 M): Clear, thick, stiffer gel
Appearance ([4]; PuraMatrix ® 1.43%, KCl 0.15 M, ionic strength 0.15 M): Clear, thick, stiffer gel
Appearance ([4]; PuraMatrix ® 1.43%, MgCl2 0.15 M, ionic strength 0.45 M): Clear, thick, stiffer gel
Appearance ([4]; PuraMatrix ® 1.43%, NaCl 0.15 M, ionic strength 0.15 M): Clear, thick, stiffer gel
Appearance ([4]; PuraMatrix ® 1.45%, CaCl2 0.1 M, ionic strength 0.3 M): Clear, thick, stiffer gel
Appearance ([4]; PuraMatrix ® 1.45%, MgCl2 0.1 M, ionic strength 0.3 M): Clear, thick, stiffer gel
Appearance ([4]; PuraMatrix ® 1.48%, CaCl2 0.05 M, ionic strength 0.15 M): Clear, thick, stiffer gel
Appearance ([4]; PuraMatrix ® 1.48%, MgCl2 0.05 M, ionic strength 0.15 M): Clear, thick, stiffer gel
Appearance ([4]; PuraMatrix ® 1.5%, CaCl2 0 M, ionic strength 0 M): Clear, thick gel
Appearance ([4]; PuraMatrix ® 1.5%, DPBS (pH 3.2) 0 M, ionic strength 0 M): Clear, thick gel
Appearance ([4]; PuraMatrix ® 1.5%, KCl 0 M, ionic strength 0 M): Clear, thick gel
Appearance ([4]; PuraMatrix ® 1.5%, MgCl2 0 M, ionic strength 0 M): Clear, thick gel
Appearance ([4]; PuraMatrix ® 1.5%, NaCl 0 M, ionic strength 0 M): Clear, thick gel
salt ionic strength increase that did not change the clear color of the solution (apparent stiffness increased) ([4]; depending on different salts, 1.5% peptide solutions): 0.85˜1.15 M
